The values below come from US20150232562A1 (Ablynx, published 2015).

To fix the notation:
B1: 12C111/1-123 (VHH)
VHH: EVQLVESGGGLVQAGGSLRLSCAVSGLTFSSYAMGWFRQAPGKVREFVATISRSGGRTSYADSVKGRFIVSRDNAKNTADLQMNDLKPEDTAVYYCGASKWYGGFGDTDIEYWGQGTQVTVSS
notes: C-term myc-His6 tag
B2: 22B55/1-123 (VHH)
VHH: EVQLVESGGGLVQAGGSLRLSCAVSGLTFSTYAMGWFRQAPGKVREFVATISRSGGRTSYADSVKGRFIVSRDNAKNTADLQMNELKPEDTAVYYCGASKWYGGFGDTDIEYWGQGTQVTVSS
notes: C-term myc-His6 tag
B3: 11A52/1-120 (VHH)
VHH: EVQLVESGGGLVQAGGSLRLSCAASGRALSNYAMRWFRQAPGKEREFVATINWSGSHTDYADSVKGRFTISRDNAENTVYLQMNSLTPEDTAVYYCASGWGATQAQSGFWGQGTQVTVSS
notes: C-term myc-His6 tag
B4: 14H111/1-120 (VHH)
VHH: EVQLVESGGGLVQAGGSLRLSCAASGRALISFAMRWFRQAPGKEREFVAAINWSGTHTDYADSVKGRFTISRDNAENTVYLLMNSLIPEDTAVYYCATGWGATQAQHGFWGQGTQVTVSS
notes: C-term myc-His6 tag
B5: 14H81/1-125 (VHH)
VHH: EVQLVESGGGLVQAGGSLSLSCAASGRTFSNYRMAWFRQAPRKEREFVAAISRSGESTYFADSMKGRFTISRDNTESTGYLQMNNLKPEDTAVYYCAASWDHGDYVDGGFFYDYWGQGTQVTVSS
notes: C-term myc-His6 tag
B6: 11B71/1-126 (VHH)
VHH: EVQLVESGGGLVQAGGSLRLSCAASGRTFERYAMGWFRQAPGKEREFVATISWSGGRDTVYADSVKGRFTISRDNAKNTVYLQMNSLKPEDTAVYYCAAHKRTYELGAHSTDFGSWGQGTQVTVSS
notes: C-term myc-His6 tag
B7: 12C42/1-124 (VHH)
VHH: EVQLVESGGGLVQAGGSLRLSCAASGRTFSRYAMHWFRQAPGSERDFVAGISWDGGSTFYANSVKGRFTISRDNAKNMVYLQMNSLKPEDTAVYYCAAAGSAGPPSIDRQYDYWGQGTQVTVSS
notes: C-term myc-His6 tag
B8: 11C11/1-121 (VHH)
VHH: EVQLVESGGGLVQAGGSLRLSCAASGRTFSAYAMGWFRQAPGKERESVATIRWTGGSSSTSYADSVKGRFTISKNTAENTVYLQMNSLKPEDTAVYYCAVLLTVWDTYKYWGQGTQVTVSS
notes: C-term myc-His6 tag
B9: 11B21/1-124 (VHH)
VHH: EVQLVESGGGLVQAGGSLRLSCAASGRTFSMYLMGWFRQAPGKEREFVSTINRRGGNTYYADSVKGRFTISRDNARNTVYLQMNSLKPEDTAVYYCAAGGHLLGYDVQWEPDYWGQGTQVTVSS
notes: C-term myc-His6 tag
B10: 13F81A/1-128 (VHH)
VHH: EVQLVESGGGLVQAGGSLRLSCAASGRTFSRYAMGWFRQAPGKEREFVAAISWTGGSSYYGDSVKGRSTISRENAENTVYLQMNSLKPEDTAVYYCAANSDEFYSGTLKLQSRMVEYWGQGTQVTVSS
notes: C-term myc-His6 tag
B11: 13F101/1-124 (VHH)
VHH: EVQLVESGGGLVQAGGSLRLSCQLSGGTVSDLHMGWFRQAPGKEREFVGFTRWPSITYIAEHVKGRFTISRDNAKNTVYLQMNSLEREDTAVYYCAADRSYSIDYRHPDSYSYWGQGTQVTVSS
notes: C-term myc-His6 tag
B12: 22C51/1-121 (VHH)
VHH: EVQLVESGGGLVQAGASLRLSCAASGRTFSRYDIGWFRQAPGKGREFVAAINWSGGTTSFGDSVKGRFTISRDNAKNTVYLQMNSLKPEDTAVYYCAALRSWPRGVDSGSWGQGTQVTVSS
notes: C-term myc-His6 tag
B13: 14H121/1-113 (VHH)
VHH: EVQLVESGGGLVQPGGSLRLSCAASGITFRFKAMGWFRQGPGKRRELVARIAGGSTNYADSVKGRFTISRDDAKNTVFLQMNSLKPEDTAVYYCNVDGPFGNWGQGTQVTVSS
notes: C-term myc-His6 tag
B14: 22B71/1-114 (VHH)
VHH: EVQLVESGGAFVQPGGSLRLSCAASGSDVWFNVMGWYRQGPGQQLELVASITYGGNINYGDPVKGRFSISRDNALKTVYLQMNSLKPEDTAVYYCYADLPSRLWGQGTQVTVSS
notes: C-term myc-His6 tag
B15: 12D102/1-118 (VHH)
VHH: EVQLVESGGGLVQPGGSLRLSCAASGSSLSFNAMGWSREAPGKRRELVARIISDDSTLYADSVKGRFTISRDYAKNTAYLQMNSLKPEDTAVYYCVADVRDSIWRSYWGQGTQVTVSS
notes: C-term myc-His6 tag
B16: 21A41/1-120 (VHH)
VHH: EVQLVESGGGLVQAGGSLRLSCAASGRIFSNYAWSWFRQAPGKERGFVAAINWSGGYTDYADSVKGRFTISRDNTKNTVYLQMNSLKPEDTAVYYCRPGWVTPSYEYGNWGQGTQVTVSS
notes: C-term myc-His6 tag
B17: 11B81/1-126 (VHH)
VHH: EVQLVESGGGLVQAGGSLRLSCAASGRPVNNYIMGWFRQALGQGREFVAAINRNGATAAYADSVKGRFTISRDNAEDLLYLQMNLLKPEDTAVYYCAANSDSGFDSYSVWAAYEYWGQGTQVTVSS
notes: C-term myc-His6 tag
B18: 12D92/1-123 (VHH)
VHH: EVQLVESGGGLVQAGGSLRLSCAASGRTYNMAWFRQAPGKEREFVAAMNWSGGSTKYAESVKGRFTISRANDNNPLYLQMNTLKPEDTAVYYCAATNRWYTGVYDLPSRYEYWGQGTQVTVSS
notes: C-term myc-His6 tag
B19: 12C81/1-117 (VHH)
VHH: EVQLVESGGGLVQPGGSLRLSCAGSGNIVRDNTMAWYRQAPGNQRDLVATINVGGGTYYAGPVKGRFTISRDNAKNSVYLQMNSLKPEDTSVYYCNVISGLVQRDYWGQGTQVTVSS
notes: C-term myc-His6 tag
B20: 11B102/1-118 (VHH)
VHH: EVQLVESGGGLVQAGGSLRLSCAASGGIFSSHAISWFRQAPGKAREFVAAINWSGSHRDYADSAKGRFTISRDNAKKTAYLQMNSLRPEDTAVYYCVGGWKTDEYVKWGQGTQVTVSS
notes: C-term myc-His6 tag
B21: 21A121/1-123 (VHH)
VHH: EVQLVESGGGLVQAGGSLRLSCTASGRAFNMGWFRQAPGKEREFVAGVNWGGGSTKVADSVKERFTISRDYDNSPVYLQMNTLKPEDTAVYYCAATSRWYSAVYDLPTRYDYWGQGTQVTVSS
notes: C-term myc-His6 tag
B22: 12C91/1-121 (VHH)
VHH: EVQLVESGGGLVQAGGSLRLSCVASGRTSSYYHMAWFRQAPGKEREFIAAINLSSGSTYYPDSVKGRFTISRGNAKNTVNLQMNSLKPEDTAVYYCAADNYRDSYLEYDYWGQGTQVTVSS
notes: C-term myc-His6 tag
B23: 12D11/1-123 (VHH)
VHH: EVQLVESGGGLVQTGGSLRLSCAASGRTFSGSRMGWFRQAPGKEREFVAAIRWSGGITWYAESVKSRFTISRDNTKNTIDLQINSLKPEDTAVYYCAADVIYKNIGSGSFDYWGQGTQVTVSS
notes: C-term myc-His6 tag
B24: 12D14/1-123 (VHH)
VHH: EVQLVESGGGLVQAGGSLRLSCAASGRTFSGSRMGWLRQAPGKEREFVAAVRWSGGITWYAESVKGRFTISRDNTKNTIDLQINSLKPEDTAVYYCAADVIYKNIGSGSFDYWGQGTQVTVSS
notes: C-term myc-His6 tag
B25: 11B61/1-120 (VHH)
VHH: EVQLVESGGGLVQAGGSLRLSCAASGRTSSGYGMGWFRQAPGKEREFVAAVGWYGSTYFADSVKGRFTIYRDNAQNTMYLQMNSLKPEDTAVYYCAASSSLATISQPSSWGQGTQVTVSS
notes: C-term myc-His6 tag
B26: 12E42/1-118 (VHH)
VHH: EVQLVESGGGLVQPGGSLRLSCAHSGRAFSLRTMGWYRQAPGNQRELVALISAGDSTYYPDSVKGRFTVSRDNAKNTVYLQMNSLKPEDTAVYYCNAKAVTSRDHEYWGQGTQVTVSS
notes: C-term myc-His6 tag
B27: 12C71/1-125 (VHH)
VHH: EVQLVESGGGLVQAGGSLRLSCTASGGTFGSYALGWFRQSPGKERESVAAIDWDGSRTQYADSVKGRFTISRENVKDTMYLQMNSLQAEDTGVYYCVRSRHSGNTLSFSLKYDYWGQGTQVTVSS
notes: C-term myc-His6 tag
B28: 12C121/1-126 (VHH)
VHH: EVQLVESGGDLVQPGESLRLSCAVSGVTVDYSGIGWFRQAPEKEREAVSCIESGDGTTTYVDSVKGRFTISRDNAKNAVYLQMNSLKPEDTGVYYCATAVFVDSGDFSVCRGVGYWGKGTQVTVSS
notes: C-term myc-His6 tag
B29: 11A43/1-123 (VHH)
VHH: EVQLVESGGGLVQAGGSLRLSCAASGSIFRVNHMGWYRQAPGKQREFVAAITSDHITWYADAVKGRFTISRDNAKNTVTLQMNSLRPEDTAVYYCAADPLLFYGVGSADVDYWGQGTQVTVSS
notes: C-term myc-His6 tag
B30: 21A31/1-125 (VHH)
VHH: EVQLVESGGGLVQAGGSLRLSCAASEPTFSSVAMGWFRQGPGKEREFAATITWSGDSTYVTDSVKGRFTISRDNARNTAYLQMDSLRPEDTAVYSCAARRWSGTLSLFDNEYYYWGQGTQVTVSS
notes: C-term myc-His6 tag
B31: 13E61/1-123 (VHH)
VHH: EVQLVESGGGLVQAGGSLRLSCTASGQTFNMGWFRQAPGKEREFVAAISWSQYNTKYADSVKGRFTISRDNAINSLYLQMDTLKPEDTAVYYCAATNRWFSAVYDLPSRYTYWGQGTQVTVSS
notes: C-term myc-His6 tag

This experiment has as its target T1, recombinant human ErbB2/Fc chimera (human, UniProt P04626 23-652).
T1 construct: bought from R&D Systems; also called rhErbB2-Fc; rhErb2-Fc; Fc part of the bought chimera not given; not described
In words: ELISA, coated ErbB2/Fc.
Regarding B1, the binding result is on record as “binds”.
For the molecule B2, the binding result was “binds”.
To B3 belongs “binds”; to B4, “binds”.
As for B5, the binding result is “binds”.
To B6 belongs “binds”; to B7, “binds”.
For B8, the binding result was “binds”.
To B9 belongs “binds”; to B10, “binds”; to B11, “binds”.
In the case of B12, the binding result was “binds”.
To B13 belongs “binds”; to B14, “binds”; to B15, “binds”.
To B16 belongs “binds”.
To B17 belongs “binds”.
Regarding B18, the binding result is “binds”.
To B19 belongs “binds”; to B20, “binds”; to B21, “binds”.
To B22 belongs “binds”; to B23, “binds”.
Turning to B24, the binding result was “binds”.
To B25 belongs “binds”.
For B26, the binding result is “binds”.
To B27 belongs “binds”; to B28, “binds”; to B29, “binds”.
To B30 belongs “binds”; to B31, “binds”.
